These results are taken from patent CN111018979A (DONGGUAN PENGZHI BIOTECHNOLOGY CO LTD, dated 2020).

The test addresses T1, cTnI质控品重组蛋白 (recombinant cardiac troponin I quality-control antigen, made in-house) (human, UniProt P19429 1-210, limits assumed).
T1 construct: The assay paragraph says only 'cTnI质控品重组蛋白(公司自产重组抗原)', so the limits of the construct are unknown; also called 心肌肌钙蛋白I; cTnI质控品重组抗原
Description: BLI, antibody held on AMC sensor, cTnI recombinant protein in solution in a dilution series.

T1 sequence (P19429 whole entry): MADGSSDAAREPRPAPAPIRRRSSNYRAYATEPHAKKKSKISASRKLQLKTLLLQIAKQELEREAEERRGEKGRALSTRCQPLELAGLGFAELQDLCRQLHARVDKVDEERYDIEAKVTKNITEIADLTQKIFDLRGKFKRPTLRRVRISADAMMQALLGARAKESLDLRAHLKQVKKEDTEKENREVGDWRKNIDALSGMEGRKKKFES

B1: Anti-cTnI 2E7 recombinant antibody (sample 1 of Example 1) (antibody, V domains shown)
VH: QVQLQQPGAELVRPGASVKLSCKASDYTFSSYWMQWVKQRPGQGLEWIGMLDPSDSETHYNQLFKDKATLTVDKSSNTAYMQLSSLTSEDSAVYFCAFLTSLGDYWGQGTTLTVSS
VL: DVLMTQTPLSLPVSLGDQASISCRSSQSIIHSQGNSYLEWYLQKPGQSPKLLLYKVSQRLSGVPDRFSGSGSGTDFTLKISRVEAEDLGVYYCFNGSHLPITFGAGTKLELK
As usually defined, the Kd is a measure of binding affinity in units of concentration. The koff is the first-order rate constant of dissociation. For orientation: kon means a measure of how fast the partners come together. Turning to B1, the Kd is 0.0648 µM, the dissociation rate constant (koff) came to 0.0027 s⁻¹ and the kon is 41700 M⁻¹ s⁻¹.
